This assay addresses T1, GST-DUB3 (human, UniProt Q6R6M4 1-530).
T1 sequence (looked up): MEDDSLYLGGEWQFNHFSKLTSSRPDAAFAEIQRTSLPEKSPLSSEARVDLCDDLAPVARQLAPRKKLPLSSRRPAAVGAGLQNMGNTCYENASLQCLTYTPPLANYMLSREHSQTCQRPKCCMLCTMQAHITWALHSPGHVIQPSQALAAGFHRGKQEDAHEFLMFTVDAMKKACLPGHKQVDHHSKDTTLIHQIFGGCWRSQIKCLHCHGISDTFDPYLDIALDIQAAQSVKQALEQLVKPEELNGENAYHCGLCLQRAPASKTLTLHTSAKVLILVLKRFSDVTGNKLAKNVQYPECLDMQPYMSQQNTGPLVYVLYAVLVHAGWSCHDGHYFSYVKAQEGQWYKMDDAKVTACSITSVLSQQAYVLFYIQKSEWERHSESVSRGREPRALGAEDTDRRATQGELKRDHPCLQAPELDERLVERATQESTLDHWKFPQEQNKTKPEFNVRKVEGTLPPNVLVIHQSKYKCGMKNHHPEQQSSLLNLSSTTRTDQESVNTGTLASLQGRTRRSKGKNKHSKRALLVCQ
The assay is described as follows: pull-down.

B1: MAGEA3-His (natural protein, human, UniProt P43357 1-314, looked up)
chain: MPLEQRSQHCKPEEGLEARGEALGLVGAQAPATEEQEAASSSSTLVEVTLGEVPAAESPDPPQSPQGASSLPTTMNYPLWSQSYEDSSNQEEEGPSTFPDLESEFQAALSRKVAELVHFLLLKYRAREPVTKAEMLGSVVGNWQYFFPVIFSKASSSLQLVFGIELMEVDPIGHLYIFATCLGLSYDGLLGDNQIMPKAGLLIIVLAIIAREGDCAPEEKIWEELSVLEVFEGREDSILGDPKKLLTQHFVQENYLEYRQVPGSDPACYEFLWGPRALVETSYVKVLHHMVKISGGPHISYPPLHEWVLREGEE
For the molecule B1, the binding result is “binds”.

For the origin of these results see PMC10897913 (iScience, 2024).
